The record followed here is patent US20230312751A1, “Anti-Fibrotic Combination” (Engitix Limited, priority 2020, published 2023).

“Also recorded” adds a separate entry of the source.

Holding throughout (type): cell-based
In assay [1] the test system is Primary human HSCs. As to the kind of experiment: Active/latent TGFβ in HSC conditioned media, TGFb-responsive luciferase reporter cells (Example 10). The note with it: conditioned media heated at 80° C. for 10 minutes; chymase 100 (C2) and 30 ng/mL (C3). The protocol: Primary human HSCs were grown to confluence and maintained in growth media for 10 days. Cells were maintained in serum-free media for 48 h and subsequently stimulated with either human Chymase (30, 100 or 300 ng/mL), human tryptase (300, 1000, 3000 ng/mL) or both in combination as indicated for a further 48 h. The TGFb1 (3 ng/mL) served at positive control and serum-free conditions as a negative control.
Conditioned media was collected and either transferred directly to cells harbouring a TGFb-responsive promoter linked to the firefly luciferase reporter gene for 24 h to determine the levels of active TGFb present in media, or conditioned media was heated at 80° C. for 10 minutes in order to activate in the conditioned media the latent TGFb into active TGFb present. The addition of exogenous TGFb1 (1 ng/mL served as a positive control. Cells were lysed after 24 h and levels of latent or active TGFb determined by measuring luciferase activity. The results are shown in FIG. 11.
(In general: In a reporter assay the amount or activity of a reporter protein is the signal.)

The subject of assay [2] is Primary human HSCs. As to the kind of experiment: Secretion of pro-fibrogenic factors by stimulated HSCs, Luminex (Example 9). Particulars: 48 h. The protocol: Primary human HSCs were grown to confluence and maintained in growth media for 10 days. Cells were maintained in serum-free media for 48 h and subsequently stimulated with either human Chymase (30, 100 or 300 ng/mL), human tryptase alone (300, 1000, 3000 ng/mL) or in combination with chymase for a further 48 h. The TGFβ1 (3 ng/mL) served as a positive control and serum-free conditions as a negative control. Media was removed after 48 h and levels of secreted IGFBP-3, Tenascin C, Collagen IV and Endostatin levels were determined by Luminex.

Assay [3] concerns Primary human hepatic stellate cells (HSCs). As to the kind of experiment: Deposited collagen type I in stimulated HSCs, immunofluorescence (Example 8). The protocol:
Primary human hepatic stellate cells (HSCs) were grown for 2 days. Cells were maintained in serum-free media for 48 h and subsequently stimulated with either human chymase (C) at 100 ng/mL, human tryptase (T) alone at 1000 ng/mL) or in combination (C 100 ng T 1000 ng) as indicated for a further 48 h. TGFβ1 served as a positive control, and serum-free conditions (SFM) as a negative control.
Following stimulation, media was removed and the cells washed in PBS and fixed with Formalin 4% for 15 min. Cells and extracellular proteins were stained with Rb ANTI-Col I (Novus Biologicals, NB600-408, 1:500) and images were acquired at 20× using a confocal microscope.

For assay [4] the test system is unchanged. As to the kind of experiment: Collagen type I production by stimulated HSCs, western blot (Example 7). Particulars: 48 h stimulation, chymase 30, 100 or 300 ng/mL, tryptase 300, 1000, 3000 ng/mL, alone or in combination. The protocol: Primary human hepatic stellate cells (HSCs) were grown to confluence and maintained in growth media for 10 days. Cells were maintained in serum-free media for 48 h and subsequently stimulated with either human chymase alone (30, 100 or 300 ng/mL), human tryptase alone (300, 1000, 3000 ng/mL) or human chymase and tryptase in combination as indicated for a further 48 h. The PAR2 agonist at 10 or 100 ng/mL and TGFb1 (3 ng/mL) served as a positive control, whilst serum-free conditions provided a negative control.
Media was removed and the cells and extracellular proteins deposited lysed in RIPA buffer.

Setting [5] is: chymase 100 ng/mL, tryptase 1000 ng/mL, 48 h.

B1: chymase: human chymase, mast cell serine protease, added exogenously to stimulate hepatic stellate cells (protein, UniProt P23946 22-247, looked up)
Chymase: IIGGTECKPHSRPYMAYLEIVTSNGPSKFCGGFLIRRNFVLTAAHCAGRSITVTLGAHNITEEEDTWQKLEVIKQFRHPKYNTSTLHHDIMLLKLKEKASLTLAVGTLPFPSQFNFVPPGRMCRVAGWGRTGVLKPGSDTLQEVKLRLMDPQACSHFRDFDHNLQLCVGNPRKTKSAFKGDSGGPLLCAGVAQGIVSYGRSDAKPPAVFTRISHYRPWINQILQAN
On to B1, for which, in the assay with Primary human HSCs [1], the “secreted latent TGFβ in conditioned media” value is recorded as “increases”. Also, the “secreted IGFBP3” value with Primary human HSCs [2] (regardless of concentration) is listed as “marked increase”. Besides, in the assay on Primary human HSCs [2] (chymase 30, 100 or 300 ng/mL), the “secreted Tenascin C” value is on record as “concentration-dependent increase” and the “secreted collagen IV” value is listed as “concentration-dependent increase”. Further, the secreted endostatin result in the assay with Primary human HSCs [2] (chymase at all concentrations) is given as “significant increase”. For the same molecule, the “cell number (nuclear stain Hoechst)” value in assay [3] (C100 ng/mL, T1000 ng/mL, C100/T1000 ng/mL, relative to serum-free medium and TGF-beta controls) is “no effect”. Also, in assay [3] (setting [5]), the “deposited collagen type I (collagen area / immunofluorescence intensity normalised to cell number) relative to SFM” value is recorded as “did not induce a significant change” and the “distribution of deposited collagen type I compared to serum-free alone (SFM)” value was “change in distribution; also recorded: altered collagen distribution patterns”. The “collagen type I protein compared to basal levels in untreated cells” value in assay [4] is given as “marked increase”.
